Values belong to the molecule of their own block, whether it stands above or below them.
Key:
Type in all cases: binding, human
full-length SNX27 = experiment: nHU-MS, recombinant full-length SNX27 bait, total Jurkat extracts; details: apparent, Fig. 4D, n = 6
Method: The empty His6-AviTag-MBP-TEV vector was used to produce biotinylated MBP for control experiments. Proteins were coexpressed with BirA biotin ligase (PET21a-BirA, Addgene, no. 20857) in Escherichia coli BL21(DE3) cells. At isopropyl-β-D-thiogalactopyranoside (IPTG) induction (1 mM IPTG at 18°C overnight), 50 μM biotin was added to the media. Harvested cells were lysed in a buffer containing 50 mM tris (pH 7.5), 150 to 300 mM NaCl, 50 μM biotin, 2 mM β-mercaptoethanol, cOmplete EDTA-free protease inhibitor cocktail (Roche, Basel, Switzerland), 1% Triton X-100, and trace amount of deoxyribonuclease, ribonuclease, and lysozyme. Lysates were frozen at −20°C before further purification steps. Lysates were sonicated and centrifuged for clarification. Expressed proteins were captured on in-house prepacked Ni-IDA (Protino Ni-IDA Resin, Macherey-Nagel, Duren, Germany) columns and were washed with at least 10 column volumes of cold wash buffer [50 mM tris (pH 7.5), 150 mM NaCl, and 2 mM β-mercaptoethanol] before elution with 250 mM imidazole. The Ni elution was collected directly on a preequilibrated amylose column (amylose high flow resin, New England Biolabs, Ipswich, MA). Amylose column was washed with 5 column volumes of cold wash buffer before fractionated elution in a buffer containing 25 mM Hepes (pH 7.5), 150 mM NaCl, 1 mM TCEP, 10% glycerol, 5 mM maltose, and cOmplete EDTA-free protease inhibitor cocktail. The concentration of proteins was determined by their ultraviolet absorption at 280 nm before aliquots were snap-frozen in liquid nitrogen and stored at −80°C.
(§1) For saturating streptavidin resin with biotinylated peptides or biotin, 50 μl of streptavidin resin was mixed with biotin or peptide at 40 to 60 μM concentration in 6 to 6.5 resin volume for 60 min. To saturate streptavidin resin with biotinylated proteins, 50 μl of streptavidin resin (Streptavidin Sepharose High Performance, Cytiva) was mixed with biotinylated MBP or MBP-PDZ at 40 to 50 μM concentration in 20× resin volume for 60 min. After saturation, resins were washed a single time [10 resin volume, holdup buffer: 50 mM tris (pH 7.5), 300 mM NaCl, and 1 mM TCEP, 0.22-μm filtered] and were depleted with biotin (10 resin volume, 10 min, holdup buffer supplemented with 100 μM biotin). Last, resins were washed two times (10 resin volume, holdup buffer).
(§2) For single-point nHU experiments carried out at ~10 μM bait concentration, 50 μl of saturated streptavidin resin was mixed with 200 μl of cell lysate (2 mg/ml). Titration experiments were carried out by mixing control and bait-saturated resin and keeping the total resin volume constant; e.g., ~5 μM bait concentration can be achieved by mixing 25 μl of bait-saturated streptavidin resin with 25 μl of control resin and 200 μl of cell lysate (2 mg/ml). Control and bait-saturated resins were prepared in larger amounts, and a serial dilution was prepared with these presaturated resins to achieve different resin ratios.
Unless specified elswhere, the nHU mixture was incubated at 4°C for 2 hours. After the incubation ended, the resin was separated from the supernatant by a brief centrifugation (15 s, 2000 g). Then, half of the supernatant was removed by pipetting without any delay to avoid any resin contamination; e.g., 100 μl of supernatant is collected if 200 μl of cell lysate was used as analyte. Alternatively, the supernatant can be centrifuged an additional time to clarify it further, removing any possible resin contamination. […]

SNX27_PDZ = experiment: nHU-MS, SNX27_PDZ bait, total Jurkat extracts, series 2 (Exploris MS); details: SNX27_PDZ&Jurkat (Exploris)
Description: (§3) To further establish the repeatability and robustness of the nHU-MS assay, we repeated the experiments using a different mass spectrometer and six different PDZ domain baits taken from SCRIB (PDZ_1 and PDZ_2), discs large MAGUK scaffold protein 1 (DLG1, PDZ_1, and PDZ_2), Tax1 binding protein 3 (TAX1BP3), and SNX27 (fig. S3B and table S1). […] Of the studied baits, the PDZ domain of SNX27 turned out to be the most promiscuous with 103 statistically significant interaction partners (while 180 SNX27 binding partners were identified in total on the basis of the three independent nHU-MS experiments).
as §1, §2
(§4) Unless specified elswhere, the nHU mixture was incubated at 4°C for 2 hours. After the incubation ended, the resin was separated from the supernatant by a brief centrifugation (15 s, 2000 g). Then, half of the supernatant was removed by pipetting without any delay to avoid any resin contamination; e.g., 100 μl of supernatant is collected if 200 μl of cell lysate was used as analyte. Alternatively, the supernatant can be centrifuged an additional time to clarify it further, removing any possible resin contamination. In principle, the separation of the supernatant should be as fast as possible since any delay can perturb the equilibrium. […] Alternatively, the resin can be separated from the supernatant using filter plates (e.g., various products of Millipore, Burlington, MA) or spin columns (e.g., Pierce spin cups—cellulose acetate filter from Thermo Fisher Scientific, Waltham, MA) to achieve faster separation.
(§5) The nHU samples were precipitated with trichloroacetic acid (TCA) 20% overnight at 4°C and centrifuged at 14,000 rpm for 10 min at 4°C. The protein pellets were washed twice with 1 ml of cold acetone and air-dried. […]
(§6) Samples were analyzed using an Ultimate 3000 nano-RSLC coupled in line via a nano-electrospray ionization source, with an LTQ-Orbitrap ELITE mass spectrometer (Thermo Fisher Scientific, San Jose, CA) or with the Orbitrap Exploris 480 mass spectrometer (Thermo Fisher Scientific, Bremen, Germany) equipped with a high field asymmetric ion mobility spectrometry (FAIMS) module. […]

SCRIB_PDZ_1 = experiment: nHU-MS, SCRIB_PDZ_1 bait, total Jurkat extracts (Exploris MS); details: SCRIB_PDZ_1&Jurkat (Exploris)
Description: as §3, §1, §2, §4
The nHU samples were precipitated with trichloroacetic acid (TCA) 20% overnight at 4°C and centrifuged at 14,000 rpm for 10 min at 4°C. The protein pellets were washed twice with 1 ml of cold acetone and air-dried. The protein extracts were solubilized in 8 M urea, reduced with 5 mM TCEP for 30 min, and alkylated with 10 mM iodoacetamide for 30 min in the dark. Double digestion was performed at 37°C with 500 ng of endoproteinase Lys-C (Wako, Richmond, USA) for 4 hours, followed by fourfold dilution and an overnight digestion with 500 ng of trypsin (Promega, Charbonnieres les Bains, France). Peptide mixtures were then desalted on a C18 spin-column and dried on a speed vacuum.
as §6

SCRIB_PDZ_2 = experiment: nHU-MS, SCRIB_PDZ_2 bait, total Jurkat extracts (Exploris MS); details: SCRIB_PDZ_2&Jurkat (Exploris)
Description: as §3, §1, §2, §4, §5, §6

pKapp (full-length SNX27): 4.94
B1: Strumpellin: component of the WASH complex (protein, UniProt Q12768 1-1159, looked up)
WASH complex subunit 5: MLDFLAENNLCGQAILRIVSCGNAIIAELLRLSEFIPAVFRLKDRADQQKYGDIIFDFSYFKGPELWESKLDAKPELQDLDEEFRENNIEIVTRFYLAFQSVHKYIVDLNRYLDDLNEGVYIQQTLETVLLNEDGKQLLCEALYLYGVMLLVIDQKIEGEVRERMLVSYYRYSAARSSADSNMDDICKLLRSTGYSSQPGAKRPSNYPESYFQRVPINESFISMVIGRLRSDDIYNQVSAYPLPEHRSTALANQAAMLYVILYFEPSILHTHQAKMREIVDKYFPDNWVISIYMGITVNLVDAWEPYKAAKTALNNTLDLSNVREQASRYATVSERVHAQVQQFLKEGYLREEMVLDNIPKLLNCLRDCNVAIRWLMLHTADSACDPNNKRLRQIKDQILTDSRYNPRILFQLLLDTAQFEFILKEMFKQMLSEKQTKWEHYKKEGSERMTELADVFSGVKPLTRVEKNENLQAWFREISKQILSLNYDDSTAAGRKTVQLIQALEEVQEFHQLESNLQVCQFLADTRKFLHQMIRTINIKEEVLITMQIVGDLSFAWQLIDSFTSIMQESIRVNPSMVTKLRATFLKLASALDLPLLRINQANSPDLLSVSQYYSGELVSYVRKVLQIIPESMFTSLLKIIKLQTHDIIEVPTRLDKDKLRDYAQLGPRYEVAKLTHAISIFTEGILMMKTTLVGIIKVDPKQLLEDGIRKELVKRVAFALHRGLIFNPRAKPSELMPKLKELGATMDGFHRSFEYIQDYVNIYGLKIWQEEVSRIINYNVEQECNNFLRTKIQDWQSMYQSTHIPIPKFTPVDESVTFIGRLCREILRITDPKMTCHIDQLNTWYDMKTHQEVTSSRLFSEIQTTLGTFGLNGLDRLLCFMIVKELQNFLSMFQKIILRDRTVQDTLKTLMNAVSPLKSIVANSNKIYFSAIAKTQKIWTAYLEAIMKVGQMQILRQQIANELNYSCRFDSKHLAAALENLNKALLADIEAHYQDPSLPYPKEDNTLLYEITAYLEAAGIHNPLNKIYITTKRLPYFPIVNFLFLIAQLPKLQYNKNLGMVCRKPTDPVDWPPLVLGLLTLLKQFHSRYTEQFLALIGQFICSTVEQCTSQKIPEIPADVVGALLFLEDYVRYTKLPRRVAEAHVPNFIFDEFRTVL

pKapp (nHU-MS) (SNX27_PDZ): 4.859
pKapp (nHU-MS) (SCRIB_PDZ_1): 4.6996
B2: DNAJC16 (protein, UniProt Q9Y2G8 26-782, looked up)
DnaJ homolog subfamily C …: LDFDPYRVLGVSRTASQADIKKAYKKLAREWHPDKNKDPGAEDKFIQISKAYEILSNEEKRSNYDQYGDAGENQGYQKQQQQREYRFRHFHENFYFDESFFHFPFNSERRDSIDEKYLLHFSHYVNEVVPDSFKKPYLIKITSDWCFSCIHIEPVWKEVIQELEELGVGIGVVHAGYERRLAHHLGAHSTPSILGIINGKISFFHNAVVRENLRQFVESLLPGNLVEKVTNKNYVRFLSGWQQENKPHVLLFDQTPIVPLLYKLTAFAYKDYLSFGYVYVGLRGTEEMTRRYNINIYAPTLLVFKEHINRPADVIQARGMKKQIIDDFITRNKYLLAARLTSQKLFHELCPVKRSHRQRKYCVVLLTAETTKLSKPFEAFLSFALANTQDTVRFVHVYSNRQQEFADTLLPDSEAFQGKSAVSILERRNTAGRVVYKTLEDPWIGSESDKFILLGYLDQLRKDPALLSSEAVLPDLTDELAPVFLLRWFYSASDYISDCWDSIFHNNWREMMPLLSLIFSALFILFGTVIVQAFSDSNDERESSPPEKEEAQEKTGKTEPSFTKENSSKIPKKGFVEVTELTDVTYTSNLVRLRPGHMNVVLILSNSTKTSLLQKFALEVYTFTGSSCLHFSFLSLDKHREWLEYLLEFAQDAAPIPNQYDKHFMERDYTGYVLALNGHKKYFCLFKPQKTVEEEEAIGSCSDVDSSLYLGESRGKPSCGLGSRPIKGKLSKLSLWMERLLEGSLQRFYIPSWPELD

pKapp (full-length SNX27): 5.47
B3: WASH2: component of the WASH complex (protein)
chain: MTPVRMQHSLAGQTYAVPLIQPDLRREEAVQQMADALQYLQKVSGDIFSRISQQVEQSRSQVQAIGEKVSLAQAKIEKIKGSKKAIKVFSSAKYPAPERLQEYGSIFTGAQDPGLQRRPRHRIQSKHRPLDERALQEKLKDFPVCVSTKPEPEDDAEEGLGGLPSNISSVSSLLLFNTTENLYKKYVFLDPLAGAVTKTHVMLGAETEEKLFDAPLSISKREQLEQQVPENYFYVPDLGQVPEIDVPSYLPDLPGIANDLMYIADLGPGIAPSAPGTIPELPTFHTEVAEPLKVDLQDGVLTPPPPPPPPPPAPEVLASAPPLPPSTAAPVGQGARQDDSSSSASPSVQGAPREVVDPSGGRATLLESIRQAGGIGKAKLRSMKERKLEKKKQKEQEQVRATSQGGHLMSDLFNKLVMRRKGISGKGPGAGEGPGGAFARVSDSIPPLPPPQQPQAEEDEDDWES

pKapp (nHU-MS) (SCRIB_PDZ_2): 4.538
pKapp (nHU-MS) (SCRIB_PDZ_1): 4.571
B4: FUS (protein, UniProt P35637 1-526, looked up)
RNA-binding protein FUS: MASNDYTQQATQSYGAYPTQPGQGYSQQSSQPYGQQSYSGYSQSTDTSGYGQSSYSSYGQSQNTGYGTQSTPQGYGSTGGYGSSQSSQSSYGQQSSYPGYGQQPAPSSTSGSYGSSSQSSSYGQPQSGSYSQQPSYGGQQQSYGQQQSYNPPQGYGQQNQYNSSSGGGGGGGGGGNYGQDQSSMSSGGGSGGGYGNQDQSGGGGSGGYGQQDRGGRGRGGSGGGGGGGGGGYNRSSGGYEPRGRGGGRGGRGGMGGSDRGGFNKFGGPRDQGSRHDSEQDNSDNNTIFVQGLGENVTIESVADYFKQIGIIKTNKKTGQPMINLYTDRETGKLKGEATVSFDDPPSAKAAIDWFDGKEFSGNPIKVSFATRRADFNRGGGNGRGGRGRGGPMGRGGYGGGGSGGGGRGGFPSGGGGGGGQQRAGDWKCPNPTCENMNFSWRNECNQCKAPKPDGPGGGPGGSHMGGNYGDDRRGGRGGYDRGGYRGRGGDRGGFRGGRGGGDRGGFGPGKMDSRGEHRQDRRERPY

Source: article PMC9770967, “Native holdup (nHU) to measure binding affinities from cell extracts” (Science Advances, 2022)
